± gives the uncertainty stated by the source.
Experiment: self-splicing fitness, log relative to wild type (ln ratio); higher = more splicing; Tetrahymena group I intron in knt gene, E. coli kanamycin selection, DiMSum; sequences stand for … in CUCUCU…GGAGGGAAAAGUUAUCAGGCAUGCACCUGGUAGCUAGUCUUUAAACCAAUAGAUUGCAUCGGUUUAAAAGGCAAGACCGUCAAAUUGCGGGAAAGGGGUCAACAGCCGUUCAGUACCAAGUCUCAGGGGAAACUUUGAGAUGGCCUUGCAAAGGGUAUGGUAAUAAGCUGACGGACAUGGUCCUAACCACGCAGCCAAGUCCUAAGUCAACAGAUCUUCUGUUGAUAUGGAUGCAGUUCACAGACUAAAUGUCGGUCGGGGAAGAUGUAUUCUUCUCAUAAGAUAUAGUCGGACCUCUCCUUAAUGGGAGCUAGCGGAUGAAGUGAUGCAACACUGGAGCCGCUGGGAACUAAUUUGUAUGCGAAAGUAUAUUGAUUAGUUUUGGAGUACUCGUGGUCG
Procedure, shortened: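 Colonies from six replicate transformations of E. coli BL21(DE3) were pooled and amplicon-sequenced on an Illumina HiSeq 2500. The library placed an intron with all eight P1ex-region nucleotides randomised inside the knt kanamycin-resistance gene on pET-22b(+), and cells grew overnight at 37°C or 30°C on LB agar with or without 25 μg/mL kanamycin (plus 100 μg/mL carbenicillin, 50 μM IPTG, 0.2% rhamnose). Fitness is the DiMSum error-weighted combination of wild-type-normalised replicate fold changes, kanamycin versus none.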

Sequence | self-splicing fitness (ln) (30 °C) | self-splicing fitness (ln) (37 °C)
AGCCAGCAAUAUUACGAGGU | -3.51 ± 0.23 | -1.93 ± 0.21
AGCCAGCAAUAUUACGAUCC | -2.27 ± 0.15 | -1.02 ± 0.19
AGCCAGCAAUAUUACGCCCG | -1.94 ± 0.47 | -1.61 ± 0.36
AGCCAGCAAUAUUACGCGAA | -0.797 ± 0.26 | -2.79 ± 0.38
AGCCAGCAAUAUUACGCGCU | -3.07 ± 0.24 | -2.15 ± 0.25
AGCCAGCAAUAUUACGCUCG | -1.78 ± 0.18 | -1.58 ± 0.18
AGCCAGCAAUAUUACGCUUA | -2.09 ± 0.11 | -1.4 ± 0.093
AGCCAGCAAUAUUACGCUUU | -2.84 ± 0.089 | -0.852 ± 0.086
AGCCAGCAAUAUUACGGCCC | – | -0.0646 ± 0.48
AGCCAGCAAUAUUACGGCGC | -1.51 ± 0.13 | -0.844 ± 0.16
AGCCAGCAAUAUUACGGUCG | -0.387 ± 0.078 | -0.328 ± 0.092
AGCCAGCAAUAUUACGUAAU | -1.71 ± 0.11 | -0.608 ± 0.12
AGCCAGCAAUAUUACGUACU | -0.0754 ± 0.072 | 0.219 ± 0.086
AGCCAGCAAUAUUACGUAGA | -2.62 ± 0.1 | -1.84 ± 0.15
AGCCAGCAAUAUUACGUCGA | -3.17 ± 0.17 | -2.88 ± 0.18
AGCCAGCAAUAUUACGUGCA | -0.689 ± 0.068 | 0.0293 ± 0.087
AGCCAGCAAUAUUACGUUAA | -2.44 ± 0.17 | -2.59 ± 0.2
AGCCAGCAAUAUUACGUUGA | -3.31 ± 0.13 | -2.04 ± 0.16
AGCCAGCAAUAUUACGUUUU | -3.78 ± 0.14 | -2.06 ± 0.11
AGCGAGCAAUAUUACGACCG | -1.98 ± 0.23 | -1.84 ± 0.32
AGCGAGCAAUAUUACGACGC | -1.92 ± 0.25 | 0.245 ± 0.2
AGCGAGCAAUAUUACGAGGA | -2.36 ± 0.15 | -2.6 ± 0.22
AGCGAGCAAUAUUACGAGUU | -2.61 ± 0.19 | -1.21 ± 0.18
AGCGAGCAAUAUUACGAUGU | -2.99 ± 0.19 | -1.46 ± 0.18

Sequence | self-splicing fitness (ln) (30 °C) | self-splicing fitness (ln) (37 °C)
AGCGAGCAAUAUUACGCUGG | -3.39 ± 0.28 | -3.38 ± 0.42
AGCGAGCAAUAUUACGGCAA | -1.93 ± 0.13 | -1.71 ± 0.15
AGCGAGCAAUAUUACGGCCU | -0.967 ± 0.17 | -0.258 ± 0.19
AGCGAGCAAUAUUACGGCGA | -0.915 ± 0.22 | -0.377 ± 0.27
AGCGAGCAAUAUUACGGGCG | -1.23 ± 0.08 | -0.431 ± 0.099
AGCGAGCAAUAUUACGGUCA | -2.05 ± 0.12 | -0.626 ± 0.11
AGCGAGCAAUAUUACGGUUG | -2.69 ± 0.24 | -2.05 ± 0.21
AGCGAGCAAUAUUACGUGAU | -2.98 ± 0.21 | -3.09 ± 0.35
AGCGAGCAAUAUUACGUGUA | -2.83 ± 0.12 | -1.98 ± 0.13
AGCGAGCAAUAUUACGUGUG | -3.86 ± 0.22 | -2.88 ± 0.17
AGCGAGCAAUAUUACGUGUU | -3.06 ± 0.16 | -2.79 ± 0.26
AGCGAGCAAUAUUACGUUUG | -3.44 ± 0.2 | -3.64 ± 0.31
AGCUAGCAAUAUUACGAAGU | -4.06 ± 0.32 | -1.73 ± 0.26
AGCUAGCAAUAUUACGACAA | -1.68 ± 0.18 | -1.34 ± 0.15
AGCUAGCAAUAUUACGAGCA | -1.16 ± 0.21 | 0.177 ± 0.17
AGCUAGCAAUAUUACGAUAC | -3.44 ± 0.49 | -1.59 ± 0.28
AGCUAGCAAUAUUACGAUAU | -0.87 ± 0.17 | 0.27 ± 0.11
AGCUAGCAAUAUUACGCAGU | -2.97 ± 0.19 | -2.02 ± 0.26
AGCUAGCAAUAUUACGCGAU | -3 ± 0.31 | -2.14 ± 0.22
AGCUAGCAAUAUUACGCGCC | -2.25 ± 0.23 | -2.04 ± 0.29
AGCUAGCAAUAUUACGCGGG | -3.3 ± 0.15 | -1.53 ± 0.14
AGCUAGCAAUAUUACGCUUU | -3.48 ± 0.25 | -2.57 ± 0.23
AGCUAGCAAUAUUACGGAGG | -3.54 ± 0.16 | -1.33 ± 0.14
AGCUAGCAAUAUUACGGCCC | -0.559 ± 0.2 | 0.0329 ± 0.35

From the supplement of paper PMC7877785
